Measured values: PMC8944080, “Production of indole by Corynebacterium glutamicum microbial cell factories for flavor and fragrance applications” (Microbial Cell Factories, 2022)

Key:
[1] = system: N[C@@H](Cc1c[nH]c2ccccc12)C(=O)O; assay: purified protein; conditions: 100 mM KPi pH 7.8, 30 °C, 0.05 mM pyridoxal phosphate, 1 mM DTT
[2] = system: T1, N[C@@H](Cc1c[nH]c2ccccc12)C(=O)O; assay: purified protein; format: biochemical, Proteus vulgaris; conditions: 100 mM KPi pH 7.8, 30 °C, 0.05 mM pyridoxal phosphate, 1 mM DTT
T1 construct: full length, N-terminal 6xHis tag, codon-optimised gene, pACYCDuet-1, E. coli BL21(DE3), Ni-NTA; TNAs are homotetramers

| Substance | Km [1] | kcat [1] | kcat/Km [1] | Km [2] | kcat [2] | kcat/Km [2] |
| --- | --- | --- | --- | --- | --- | --- |
| EcTNA (Escherichia coli K-12) | 140 ± 10 µM | 1.65 s⁻¹ | 11800 M⁻¹ s⁻¹ |  |  |  |
| PvTNA (Proteus vulgaris) |  |  |  | 30 ± 3 µM | 0.78 ± 0.02 s⁻¹ | 26000 ± 5800 M⁻¹ s⁻¹ |
